{"source": "patent US7939307B2", "about": "“Deletion mutant of multi-copper oxidase and its use in dyeing” (National University Corporation Kanazawa University, priority 2005, dated 2011)", "molecules": {"B1": {"name": "Wild-type CueO: enzyme prepared by adding a histidine tag to the C-terminus of wild-type mature CueO derived from Escherichia coli (protein, listed as Escherichia coli)", "chain": "MQRRDFLKYSVALGVASALPLWSRAVFAAERPTLPIPDLLTTDARNRIQLTIGAGQSTFGGKTATTWGYNGNLLGPAVKLQRGKAVTVDIYNQLTEETTLHWHGLEVPGEVDGGPQGIIPPGGKRSVTLNVDQPAATCWFHPHQHGKTGRQVAMGLAGLVVIEDDEILKLMLPKQWGIDDVPVIVQDKKFSADGQIDYQLDVMTAAVGWFGDTLLTNGAIYPQHAAPRGWLRLRLLNGCNARSLNFATSDNRPLYVIASDGGLLPEPVKVSELPVLMGERFEVLVEVNDNKPFDLVTLPVSQMGMAIAPFDKPHPVMRIQPIAISASGALPDTLSSLPALPSLEGLTVRKLQLSMDPMLDMMGMQMLMEKYGDQAMAGMDHSQMMGHMGHGNMNHMNHGGKFDFHHANKINGQAFDMNKPMFAAAKGQYERWVISGVGDMMLHPFHIHGTQFRILSENGKPPAAHRAGWKDTVKVEGNVSEVLVKFNHDAPKEHAYMAHCHLLEHEDTGMMLGFTV"}}, "key": {"[1]": {"test": "Oxidative polymerization activity for various substrates (Test Example 2)", "format": "biochemical", "details": "pH 5.5", "experimental": "For substrates other than catechin, lignin (derived from rice), and lignin (derived from conifer), each substrate was dissolved in DMSO, and then dissolved in an ion-exchange water, to give a 1 mM DMSO (1.0%) aqueous solution.\nFor catechin, lignin (derived from rice), and lignin (derived from conifer), each substrate was dissolved in DMSO, and then dissolved in an ion-exchange distilled water, to give a 2 mg/mL DMSO (1.0%) aqueous solution.\n(§1) For the following method, an acetate buffer solution (pH 5.5) was used as the buffer solution.\n0.88 mL of a 0.1 M buffer solution and 0.1 mL of the substrate solution were mixed in a cuvette (1.0 mL quartz cell, manufactured by SHIMADZU), 0.02 mL of an aqueous solution of mCueO (1) was added thereto, and mixed by inversion. The change in absorbance at each wavelength (measurement wavelength shown in Table 2) from 0 to 30 seconds was measured using a spectrophotometer (UV-2459, manufactured by SHIMADZU).\nFor comparison, the oxidative polymerization activity of wild-type CueO was measured in the same manner."}, "[2]": {"test": "Oxidative polymerization activity for representative substrates of laccase (Test Example 1)", "format": "biochemical", "details": "pH 5.5", "experimental": "2,6-dimethoxyphenol, p-phenylenediamine, 2,2′-azino-bis(3-ethylbenzothiazoline-6-sulfonate) (ABTS), 2-methoxyphenol, and catechol were dissolved in an ion-exchange distilled water, respectively, to each give a 50 mM aqueous solution.\n4-hydroxyindole and p-aminophenol were dissolved in dimethylsulfoxide (DMSO), respectively, to each give a 50 mM DMSO solution.\no-aminophenol was dissolved in DMSO, and then dissolved in an ion-exchange distilled water, to give a 50 mM DMSO (10%)-aqueous solution.\n1-nitroso-2-naphthol-3,6-disulfonic acid disodium (NNS) was dissolved in an ion-exchange distilled water to give a 5 mM aqueous solution.\nBilirubin was dissolved in DMSO to give a 0.5 mM DMSO solution.\nSyringaldazine was dissolved in ethanol to give a 5 mM ethanol solution.\nL-tyrosine was dissolved in a 0.1 M phosphate buffer solution (pH 6.5), to give a 1 mM solution.\nas §1\nFor the substrates other than NNS and bilirubin, 0.88 mL of a 0.1 M buffer solution and 0.1 mL of the substrate solution were mixed in a cuvette (1.5 mL UV disposable cell, […], and mixed by inversion. The change in absorbance at each wavelength (measurement wavelength shown in Table 1) from 0 to 30 seconds was measured using a spectrophotometer (UV-2459, manufactured by SHIMADZU).\nFor NNS and bilirubin, 0.96 mL of a 0.1 M buffer solution and 0.02 mL of the substrate solution were mixed in a cuvette (1.5 mL UV disposable cell, manufactured by TOP), 0.02 mL of an aqueous solution of mCueO (1) was added thereto, and mixed by inversion. The change in absorbance at each wavelength (measurement wavelength shown in Table 1) from 0 to 30 seconds was measured using a spectrophotometer (UV-2459, manufactured by SHIMADZU).\nFor comparison, the oxidative polymerization activity of an enzyme prepared by adding a histidine tag to the C-terminus of wild-type mature CueO (SEQ ID NO: 8, hereinafter, simply referred to as ‘wild-type CueO’) was measured in the same manner. […] The change in absorbance in 30 seconds which is measured in the above manner was given in terms of change in absorbance in 1 minute (same applies below)."}, "[3]": {"details": "substrate o-Aminophenol, 420 nm"}, "[4]": {"details": "substrate p-Phenylenediamine, 470 nm"}}}
{"molecule": "B1", "values": [{"measurement": "Activity (U)", "setting": "[1]; substrate 1,3-Dihydroxynaphthalene, 450 nm", "result": 2.53, "unit": "U"}, {"measurement": "Activity (U)", "setting": "[1]; substrate 1,5-Dihydroxynaphthalene, 470 nm", "result": 0.78, "unit": "U"}, {"measurement": "Activity (U)", "setting": "[1]; substrate 1-Naphthol, 405 nm", "result": 0.00, "unit": "U"}, {"measurement": "Activity (U)", "setting": "[1]; substrate 2,4-Diaminophenol dihydrochloride, 470 nm", "result": 69.83, "unit": "U"}, {"measurement": "Activity (U)", "setting": "[1]; substrate 2,5-Diaminotoluene sulfate, 470 nm", "result": 44.55, "unit": "U"}, {"measurement": "Activity (U)", "setting": "[1]; substrate 2,6-Dihydroxynaphthalene, 405 nm", "result": 0.00, "unit": "U"}, {"measurement": "Activity (U)", "setting": "[1]; substrate 2,6-Dimethoxy-4-metylphenol, 405 nm", "result": 0.00, "unit": "U"}, {"measurement": "Activity (U)", "setting": "[1]; substrate 2,6-Dimethoxyphenol, 470 nm", "result": 1.43, "unit": "U"}, {"measurement": "Activity (U)", "setting": "[1]; substrate 2-Chloro-1,4-phenylenediamine, 450 nm", "result": 3.10, "unit": "U"}, {"measurement": "Activity (U)", "setting": "[1]; substrate 2-Methoxyphenol, 450 nm", "result": 0.00, "unit": "U"}, {"measurement": "Activity (U)", "setting": "[1]; substrate 4-Hydroxyindole, 405 nm", "result": 3.33, "unit": "U"}, {"measurement": "Activity (U)", "setting": "[1]; substrate 5-Aminoorthocresol, 405 nm", "result": 0.00, "unit": "U"}, {"measurement": "Activity (U)", "setting": "[1]; substrate 5-Hydroxyindole, 405 nm", "result": 0.00, "unit": "U"}, {"measurement": "Activity (U)", "setting": "[1]; substrate Catechin, 405 nm", "result": 0.00, "unit": "U"}, {"measurement": "Activity (U)", "setting": "[1]; substrate Catechol, 405 nm", "result": 0.00, "unit": "U"}, {"measurement": "Activity (U)", "setting": "[1]; substrate Gallic acid, 405 nm", "result": 1.78, "unit": "U"}, {"measurement": "Activity (U)", "setting": "[1]; substrate Hydroquinone, 405 nm", "result": 0.00, "unit": "U"}, {"measurement": "Activity (U)", "setting": "[1]; substrate Lignin (derived from conifer), 450 nm", "result": 0.00, "unit": "U"}, {"measurement": "Activity (U)", "setting": "[1]; substrate Lignin (derived from rice), 450 nm", "result": 0.00, "unit": "U"}, {"measurement": "Activity (U)", "setting": "[1]; substrate N,N-Dimethyl-p-phenylenediamine, 470 nm", "result": 59.35, "unit": "U"}, {"measurement": "Activity (U)", "setting": "[1]; substrate Propyl gallate, 405 nm", "result": 0.00, "unit": "U"}, {"measurement": "Activity (U)", "setting": "[1]; substrate Protocatechuic acid, 405 nm", "result": 0.00, "unit": "U"}, {"measurement": "Activity (U)", "setting": "[1]; substrate Pyrogallol, 405 nm", "result": 9.44, "unit": "U"}, {"measurement": "Activity (U)", "setting": "[1]; substrate Resorcinol, 405 nm", "result": 0.00, "unit": "U"}, {"measurement": "Activity (U)", "setting": "[1]; substrate Tolylene-3,4-diamine, 470 nm", "result": 0.00, "unit": "U"}, {"measurement": "Activity (U)", "setting": "[1]; substrate Trimethylhydroquinone, 405 nm", "result": 0.00, "unit": "U"}, {"measurement": "Activity (U)", "setting": "[1]; substrate m-Aminophenol, 405 nm", "result": 0.00, "unit": "U"}, {"measurement": "Activity (U)", "setting": "[1]; substrate m-Phenylenediamine, 405 nm", "result": 0.00, "unit": "U"}, {"measurement": "Activity (U)", "setting": "[1]; [3]", "result": 14.06, "unit": "U"}, {"measurement": "Activity (U)", "setting": "[1]; substrate o-Phenylenediamine, 430 nm", "result": 0.00, "unit": "U"}, {"measurement": "Activity (U)", "setting": "[1]; substrate p-Aminodiphenylamine, 470 nm", "result": 48.86, "unit": "U"}, {"measurement": "Activity (U)", "setting": "[1]; substrate p-Aminophenol, 405 nm", "result": 3.37, "unit": "U"}, {"measurement": "Activity (U)", "setting": "[1]; substrate p-Methylaminophenol sulfate, 470 nm", "result": 6.51, "unit": "U"}, {"measurement": "Activity (U)", "setting": "[1]; [4]", "result": 19.55, "unit": "U"}, {"measurement": "Activity (U)", "setting": "[2]; substrate 2-Methoxyphenol, 470 nm", "result": 0.00, "unit": "U"}, {"measurement": "Activity (U)", "setting": "[2]; substrate ABTS, 420 nm", "result": 40.22, "unit": "U"}, {"measurement": "Activity (U)", "setting": "[2]; substrate Bilirubin, 530 nm", "result": 0.53, "unit": "U"}, {"measurement": "Activity (U)", "setting": "[2]; substrate Catechol, 400 nm", "result": 0.00, "unit": "U"}, {"measurement": "Activity (U)", "setting": "[2]; substrate L-Tyrosine, 490 nm", "result": 0.00, "unit": "U"}, {"measurement": "Activity (U)", "setting": "[2]; substrate NNS, 490 nm", "result": 0.00, "unit": "U"}, {"measurement": "Activity (U)", "setting": "[2]; substrate Syringaldazine, 530 nm", "result": 4.73, "unit": "U"}, {"measurement": "Activity (U)", "setting": "[2]; [3]", "result": 14.06, "unit": "U"}, {"measurement": "Activity (U)", "setting": "[2]; substrate p-Aminophenol, 400 nm", "result": 3.37, "unit": "U"}, {"measurement": "Activity (U)", "setting": "[2]; [4]", "result": 9.70, "unit": "U"}]}
